Substitutions are numbered along the chain they refer to.
T1: Recombinant NT antigen (N-terminal pro-brain natriuretic peptide, NT-proBNP) (human, UniProt P16860 27-102)
T1 construct: domain: N-terminal pro-brain natriuretic peptide (NT-proBNP); also called recombinant NT protein; N-terminal pro-B-type natriuretic peptide
T1 sequence (looked up): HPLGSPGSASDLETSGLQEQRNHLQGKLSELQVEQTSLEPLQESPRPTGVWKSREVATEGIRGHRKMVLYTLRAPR

B1: Mutation 1-43 (antibody)
heavy: QVRLQESGPSQVKPAQTLSLTCAISGFSVTTYYLDWVRHTPGKPPEWLAQMTKDGNAVHQPTVRSRLSITRDTSKSQVFLKLTGVTTEDTAVYYCVRGIIDFGPGLLVTVSSASTTPPKVYPLTSCCGDTSSSIVTLGCLVSSYMPEPVTVTWNSGALTSGVHTFPAILQSSGLYSLSSVVTVPASTSGAQTFICNVAHPASSTKVDKRVEPGCPDPCKHCRCPPPELPGGPSVFIFPPKPKDTLTISGTPEVTCVVVDVGQDDPEVQFSWFVDNVEVRTARTKPREEQFNSTFRVVSALPIQHQDWTGGKEFKCKVHNEGLPAPIVRTISRTKGQAREPQVYVLAPPQEELSKSTLSVTCLVTGFYPDYIAVEWQKNGQPESEDKYGTTTSQLDADGSYFLYSRLRVDKNSWQEGDTYACVVMHEALHNHYTQKSISKPPGK
light: QAVLTQPSSVSRSLGQTVSITCSGSSDNVGFGDYLNWFQLIPGSAPKTLIFGASSRLRGVPDRFSGSRSGNTATLTINSLQAEDEADYYCGSANSRGGYVFGSGTRLTVLSQPKSAPSVTLFPPSKEELDTNKATVVCLISDFYPGSVNVVWKADGSTINQNVKTTQASKQSNSKYAASSYLTLTGSEWKSKSSYTCEVTHEGSTVTKTVKPSECS
B2: Mutation 1-47 (antibody)
heavy: B1 heavy with V29I, L34V, V63I, I99V
light: QAVLTQPSSVSRSLGQTVSITCSGSSDQVGFGDYVNWFQLIPGSAPKTLIFGASSRVRGVPDRFSGSRSGNTATLTINSLQAEDEADYYCGSPNSRNYVFGSGTRLTVLSQPKSAPSVTLFPPSKEELDTNKATVVCLISDFYPGSVNVVWKADGSTINQNVKTTQASKQSNSKYAASSYLTLTGSEWKSKSSYTCEVTHEGSTVTKTVKPSECS
B3: Mutation 1-53 (antibody)
heavy: B1 heavy with L34V, Q60N, I99V
light: B2 light with Q28N, V35I, S54Y, P93G
B4: Mutation 1-45 (antibody)
heavy: B1 heavy with V29I, L34I, V63L, I99L
light: B1 light with N28Q, L35I, L57I, A93P
B5: Mutation 1-44 (antibody, V domains shown)
VH: QVRLQESGPSQVKPAQTLSLTCAISGFSVTTYYVDWVRHTPGKPPEWLAQMTKDGNAVHNPTLRSRLSITRDTSKSQVFLKLTGVTTEDTAVYYCVRGLIDWGPGLLVTVSS
VL: QAVLTQPSSVSRSLGQTVSITCSGSSDNVGFGDYVNWFQLIPGSAPKTLIFGASSRVRGVPDRFSGSRSGNTATLTINSLQAEDEADYYCGSANSRNYVFGSGTRLTVLS
B6: Mutation 1-46 (antibody, V domains shown)
VH: B5 VH with V29I, V34L, L63I, L99V
VL: QAVLTQPSSVSRSLGQTVSITCSGSSDQVGFGDYLNWFQLIPGSAPKTLIFGASSRLRGVPDRFSGSRSGNTATLTINSLQAEDEADYYCGSPNSRGGYVFGSGTRLTVLS
B7: Mutation 1-50 (antibody, V domains shown)
VH: B5 VH with V29L, N60Q
VL: B6 VL with L35I, S54T, L57V, P93A
B8: Mutation 1-48 (antibody, V domains shown)
VH: B5 VH with V29L, V34I, N60Q, L63I, L99I
VL: B6 VL with L35V, S54T, L57I

target: T1, Recombinant NT antigen (N-terminal …); test: indirect ELISA, KD calculated from half-max OD at 4 coating concentrations
Method in brief: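 Plates coated overnight at 4 °C with recombinant NT antigen at 3, 1.5, 0.75 or 0.375 μg/ml, blocked with 20% BSA. Antibody, 2-fold dilutions from 1000 to 0.977 ng/ml, was incubated 30 min at 37 °C, then detected with HRP anti-IgG, OD450/630. KD was derived from half-max OD across coating levels.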

Row | Binder | Kd [nM]
1 | B1 | 2.93
2 | B2 | 2.79
3 | B3 | 2.06
4 | B4 | 1.53
5 | B5 | 1.26
6 | B6 | 3.49
7 | B7 | 2.16
8 | B8 | 2.02

Reference: patent publication US20220025008A1 (FAPON BIOTECH, published 2022)
